Data published in the supplement of paper PMC12042874.
± gives the uncertainty stated by the source.

Test: amyloid nucleation score (Sup35N fusion, yeast selection) (log enrichment); library NNK2; higher = more nucleation; inactive = no reads after selection
Summary of the method: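 Sup35N was fused to peptides of 20 random codons and expressed in psi-negative yeast, which were induced with 100 μM copper sulfate for 24 hours and then grown on medium lacking adenine and uracil for 7 days at 30°C. Plasmid inserts from input and output were sequenced on Illumina. The nucleation score is the DiMSum log enrichment of output over input reads, centred on the mode score of non-aggregating sequences. Sequences with under 100 input reads were left out, and random libraries had three technical output replicates.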

Row | Substance | amyloid nucleation score
1 | ILSTVTDSSCNIACSCNNN | 8.363 ± 0.047
2 | YNMCYNG | -0.781 ± 1.1
3 | WNFFLGMAIMGLRRSCL | 4.1 ± 0.068
4 | RNIIFTWGLCC | 5.913 ± 0.035
5 | NMGSYD | inactive
6 | LVCSNWCIVPFMYGTRHRKE | 9.299 ± 0.03
7 | ERFRIGTCSIRCSYILGLRR | -0.898 ± 0.54
8 | HVYFSCAYWQPVYMYCCGKQ | 7.771 ± 0.059
9 | VYYTVVCGDDRRCIKMCKFC | 5.327 ± 0.032
10 | INIMARIWLQSVWLSVGRKS | 0.097 ± 0.79
11 | DKKLIFRWAITVMIRIPART | 1.65 ± 0.48
12 | SGSKGRASVNIIDR | 0.131 ± 1
13 | TLTPNNSTCTGVCFCLSYNQ | 9.475 ± 0.059
14 | VFGPPWCLGHSHWILFYVGC | -0.519 ± 1
15 | WQNETRMACRWFRRMLSFCI | 1.42 ± 0.4
16 | YNSNNRAILSLLHDQRNLYG | 0.643 ± 0.16
17 | SSLCIRSAL | -0.092 ± 0.63
18 | EGSNNVVVRDSAVYQVSGEM | -0.375 ± 1.1
19 | SPVVADQPWCSI | 0.321 ± 0.64
20 | YIFGSCGVYLFPPPAKF | 6.88 ± 0.078
21 | SSTPMCVPMYCS | inactive
22 | FCFFSLVRLYKGYRSSINLA | inactive
23 | LSVRPASNELCAHVVVRFEC | 3.66 ± 0.09
24 | SCSSCLL | -0.183 ± 1
25 | KVELYYWVSTLSVCSLALYS | 6.07 ± 0.084

Row | Substance | amyloid nucleation score
26 | YVFYLVR | 1.03 ± 0.24
27 | RRLAGSTAEKMYMF | inactive
28 | LARCGPKLW | 3.43 ± 0.07
29 | KVVCLMVISCCLPLAPHRGW | 3.53 ± 0.11
30 | IRADIHKLHLTIIYFKPPLV | -0.47 ± 0.78
31 | QGCPFWYNYVLVYSVSGGIS | 2.36 ± 0.14
32 | QSFNVCCWLGEMDVLYSSIT | 8.997 ± 0.038
33 | FRQFS | 0.285 ± 1
34 | CTEGQLN | 0.002 ± 0.55
35 | QDVSYPSWYPGAFC | -0.675 ± 1.1
36 | NLECLYKLFPDFASLIRLCV | 0.185 ± 0.8
37 | EILRSGMSCIWVLYDFIGI | -0.437 ± 1
38 | TYVLWSFTKYRPP | 1.02 ± 0.66
39 | ANSYYIVYLGPHHAYFFILK | 3.75 ± 0.12
40 | DSPQHHECIMVWL | 4.38 ± 0.064
41 | FTNCEYNVDISCVSGLSYSI | inactive
42 | CEFMCLQGSRDRIDFLHRSE | -1 ± 0.34
43 | KDDSQLVLRDRPSRLWRLKE | 0.804 ± 0.53
44 | KRWIT | -0.65 ± 0.55
45 | RCVYNTKVREMPVLVGLRQD | inactive
46 | SFDGGRDGRLMYIGRMLEEL | -0.067 ± 0.62
47 | FVLNHLAV | -0.548 ± 0.54
48 | VVRKGCL | -0.86 ± 1.1
49 | LLGISLLSLWTFGYLSEIVV | 0 ± 0.8
50 | LIQRVRGCWTSYVYGGVWSR | 1.66 ± 0.34

Row | Substance | amyloid nucleation score
51 | VCACKIYKRHTLGSR | -0.573 ± 0.76
52 | LTTSIL | -1.06 ± 0.39
53 | PDVPIFCPYAAAMKVAVCYR | -0.526 ± 0.76
54 | YLCLTFCNIDNLQVMFKSAY | 8.209 ± 0.034
55 | HLWGTKFMAFVARFV | -0.12 ± 0.79
56 | LRCSESCNLMNKYGWRRNQA | 3.65 ± 0.081
57 | FNKNDNYYSAR | -0.753 ± 0.78
58 | TYRSEYCICLLLSAFFQMKG | -1.08 ± 1.1
59 | GIGSQMWFT | 3.41 ± 0.053
60 | NGEASVGDFNVCLR | -0.478 ± 0.64
61 | YAIGDNAA | 0.111 ± 0.32
62 | RGYLTAT | -0.134 ± 0.53
63 | FTQTSTVPSKETALALNLMR | 0.688 ± 0.57
64 | QKLIRWCVKLG | 4.24 ± 0.062
65 | SSIKSSKIGAGGSL | -0.213 ± 0.79
66 | LAIVLRGNFTIVSTAIE | 3.26 ± 0.1
67 | FSYNMACLNKLLSLSLYRFS | -1.29 ± 0.44
68 | WRSDLAVGFYKEMHSRRING | -0.992 ± 0.36
69 | YVCRSGWDLVAKFGILRREE | 2.17 ± 0.2
70 | CAIKFPYQFTYLNINNQ | 6.229 ± 0.044
71 | VRMEVIFYC | 2.54 ± 0.2
72 | QNLSSLFKVYGTSSC | -0.953 ± 0.38
73 | CAPVTLVFRYAGIYMQLFIW | inactive
74 | DGSMFGPDVCFYIVSLILPF | 5.03 ± 0.07
75 | RRIVGFFANDRTLIYLVGYI | -0.902 ± 0.49

Row | Substance | amyloid nucleation score
76 | GFVMSYGRGLLS | 0.29 ± 0.42
77 | STVFRQSLE | 0.269 ± 0.22
78 | FLIFINMGIRRIRHV | -1.37 ± 0.75
79 | MVLNIDCFCDFYLALSCMSI | 5.58 ± 0.079
80 | RDREIVQSLLHVLSQASLFV | -0.456 ± 0.35
81 | AMYFRVVLA | 1.25 ± 0.31
82 | EIVQFLLHMYGSVREAMVAL | -1.05 ± 0.56
83 | LLQKDEVRE | -0.505 ± 0.3
84 | YSGKNIAGLNFSIRCCSSIE | 8.793 ± 0.036
85 | QRCISGNTNSVCRLEYRWLM | 0.396 ± 0.44
86 | RQSNPR | 1.53 ± 0.31
87 | ASMKGYV | 0.148 ± 0.5
88 | VMCSWVGDLWFCESIRAQEV | 8.035 ± 0.047
89 | PVRSRWPFSSSLAAVTTYRV | 1.26 ± 0.41
90 | TSERRLNYTCCNYWYMG | 9.053 ± 0.04
91 | LTCSVNTGYYGYIRRL | -0.607 ± 0.25
92 | SGSRMFCVRHMIMSGGVLGS | -0.451 ± 0.54
93 | QQHYLEEPDDESLVRGCRHW | -0.039 ± 0.54
94 | MLSRNNCNALWYSIFS | -1.5 ± 1
95 | EWVYFLCSFHPSIDFLNISD | 5.62 ± 0.076
96 | SCLLVEQLP | 0.864 ± 0.26
97 | LFLSLTTQNWFNYNLPI | 7.32 ± 0.026
98 | SKYKRLYVGTNDIIQLDWSN | 3.16 ± 0.068
99 | YVSGGVKAFSFLSVCYLSPW | 7.586 ± 0.066
100 | GMNFHRGLMLNGVCIFSLLW | 0.491 ± 0.38

Row | Substance | amyloid nucleation score
101 | SNHVKCGWICKFSLRIQSVY | 0.129 ± 0.65
102 | FIFIMGIFERLH | -1.54 ± 1.1
103 | TYPRDYVVRSEI | 0.74 ± 0.43
104 | ELRISPPDNRLWDPQ | 0.183 ± 1
105 | LYFASVNQTNSFLRIL | 2.93 ± 0.073
106 | SSPHWSK | -0.051 ± 0.37
107 | LPTWYVLVPLMDYIYYLFKE | -0.536 ± 1
108 | SKLIVWLTDLASSVSRMLLV | 4.09 ± 0.071
109 | GARYTIWECF | inactive
110 | TVIIDDTCICFYYIEYMWCE | inactive
111 | EPLVKYPEYSFPSMVCMPSI | -0.478 ± 0.64
112 | MYRPINFITCSVRMFVVIVC | inactive
113 | YSEMRDSQAVVAYESRVVKP | 0.798 ± 0.46
114 | LYLEMMCAIVWQQSYRHNRT | 0.727 ± 0.13
115 | SLYLRSRSRISFMGVGQKEL | 3.28 ± 0.11
116 | SFGKVYFN | 0.617 ± 0.53
117 | TYMRGSLSEIGGTLL | 1.06 ± 0.19
118 | GYRLGHRRGGFGVLNGFYGD | -0.157 ± 0.79
119 | QLVGDELMRCSNGAVDKNVA | 1.75 ± 0.24
120 | YTVPSQNKWVENLMNWRGYR | -0.663 ± 0.23
121 | CGLLYREVSIGQGSPTGVRD | inactive
122 | IVFPDCSRYKKPHFCYEMVI | inactive
123 | LSWDYLSWTREI | -0.333 ± 0.24
124 | FHMVIGWYICLICNGFYTFF | inactive
125 | ERVQMFQIRVQSAYVVFGVS | 4.75 ± 0.077

Row | Substance | amyloid nucleation score
126 | SVLSFMRYLCGWQA | 6.513 ± 0.053
127 | VIDGNKDGSMTFPVQGDALR | 1.2 ± 0.48
128 | LACTKQFQVAVVFPDYTFIA | 3.71 ± 0.064
129 | YTLRSNTNASMRRHLMQVPR | -0.531 ± 1.1
130 | RYNPCD | 0.334 ± 0.44
131 | CSDCDSRMC | -0.41 ± 0.42
132 | TLMWESYMWS | -0.897 ± 0.63
133 | WSRKECG | 0.408 ± 0.4
134 | WSRSNLCTFSFLGNIISPDR | 4.02 ± 0.073
135 | FFISLDRVMLTGLKLTCPLG | -0.266 ± 1.1
136 | SVTCSSRCVSQRRFLVGPWN | -1.35 ± 0.41
137 | NKRATALCNLHF | inactive
138 | YVYDISGRITVNPITYKCQL | -1.16 ± 0.64
139 | NAWDVTKSYQHVHSCSIMLV | inactive
140 | NDGYFVFDALFFHR | -2.34 ± 0.75
141 | NLFPSQTLYVFRHVGCCG | inactive
142 | SQSKNDQ | 0.257 ± 0.34
143 | NGGTMLMRLDRS | -0.216 ± 0.63
144 | WFIGS | inactive
145 | CDVRMRVAGRAR | 3.19 ± 0.11
146 | HSDMFRKIQVLILSVERQNE | inactive
147 | GSQGFPRRFSPSMPM | 0.886 ± 0.8
148 | RSVPYSLCSMQLCTFHFEHS | 8.384 ± 0.028
149 | DLSNSIVLLGFDNSQWLRDA | 1.78 ± 0.095
150 | AGLRGIHEIGLLDAKWDDNH | inactive

Row | Substance | amyloid nucleation score
151 | VHVVSRAQTCEFF | 0.956 ± 0.67
152 | AEAISQLEAMR | 1.13 ± 0.39
153 | WFSDIKSPASLLVSVVVVM | 0.272 ± 0.57
154 | LRDCFVEYEGSSSMYYLRQW | -0.105 ± 0.4
155 | GSRVALLNMGGK | -0.512 ± 0.79
156 | VHQRYRSVRCWNWIVM | -0.545 ± 0.48
157 | SVLTIRLKMQGHWLPGAAGC | 3.66 ± 0.15
158 | YLTNLNNCADKSNCW | inactive
159 | AVSIGLYFVQASP | 9.658 ± 0.052
160 | LIIFTGYRCSLPFMSFF | -0.945 ± 1
161 | VDAFLWHVDVHMFIEVGVRW | -0.024 ± 0.65
162 | CLCQIHSRSYPFIL | 0.148 ± 1
163 | FRNPHYASHGQYHYRFNMRY | inactive
164 | VTRVWYRTSDCDAYSHGNFL | 0.991 ± 0.27
165 | YDRIGCRASTSLSAYPLATA | 2.58 ± 0.076
166 | YIPCDKANRSFENC | 1.19 ± 0.35
167 | NYSGLDERPVWVFWYLVFEY | -1.09 ± 1.1
168 | GFALYFCSEFMVSVCRCKHT | 9.613 ± 0.065
169 | GQTIL | inactive
170 | KQEHSYYNLDDLGHRGSEGA | -0.536 ± 1.1
171 | VVCFMPSFYAGPKI | 5.281 ± 0.041
172 | VMFLFGGCTDNS | 0.382 ± 0.8
173 | YLARASYS | 0.258 ± 0.18
174 | MLMSNFCF | -0.077 ± 0.74
